The supplement of paper PMC9112550, “Optimization of the antimicrobial peptide Bac7 by deep mutational scanning” (BMC Biology, 2022)

Tested on: Escherichia coli TOP10
Assay: shrunken log2 fold change of peptide-encoding DNA abundance (4.5 h post-induction vs induction); higher = less antimicrobial activity (less host growth inhibition)
Conditions: time post-induction: 4.5 h; library: site-saturation at positions 5, 18, 19, 20
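Note: peptides expressed intracellularly from a pBAD plasmid library in pooled LB shake-flask culture, induced with 0.3% L-arabinose, DNA abundance read by NGS, three biological replicates, DESeq2 with apeglm shrinkage.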

| Sequence | shrunken log2 fold change |
| --- | --- |
| RRIRMRPPRLPRPRPRPNPKPRP | 0.023 |
| RRIRMRPPRLPRPRPRPNQEPRP | -0.0314 |
| RRIRMRPPRLPRPRPRPNRGPRP | 0.218 |
| RRIRMRPPRLPRPRPRPNRQPRP | 0.108 |
| RRIRMRPPRLPRPRPRPNRTPRP | 0.13 |
| RRIRMRPPRLPRPRPRPNTEPRP | -0.0533 |
| RRIRMRPPRLPRPRPRPNTRPRP | 0.371 |
| RRIRMRPPRLPRPRPRPNVRPRP | 0.0272 |
| RRIRMRPPRLPRPRPRPNWDPRP | 0.0485 |
| RRIRMRPPRLPRPRPRPNWIPRP | -0.118 |
| RRIRMRPPRLPRPRPRPNWVPRP | -0.0816 |
| RRIRMRPPRLPRPRPRPNYQPRP | -0.23 |
| RRIRMRPPRLPRPRPRPNYTPRP | -0.434 |
| RRIRMRPPRLPRPRPRPPDDPRP | 0.0932 |
| RRIRMRPPRLPRPRPRPPDPPRP | 1.25 |
| RRIRMRPPRLPRPRPRPPEFPRP | 1.05 |
| RRIRMRPPRLPRPRPRPPFEPRP | 0.492 |
| RRIRMRPPRLPRPRPRPPFWPRP | 1.2 |
| RRIRMRPPRLPRPRPRPPGPPRP | 1.41 |
| RRIRMRPPRLPRPRPRPPHEPRP | 0.445 |
| RRIRMRPPRLPRPRPRPPHIPRP | -0.0498 |
| RRIRMRPPRLPRPRPRPPHNPRP | 0.767 |
| RRIRMRPPRLPRPRPRPPHSPRP | 0.851 |
| RRIRMRPPRLPRPRPRPPHVPRP | 0.865 |
| RRIRMRPPRLPRPRPRPPHYPRP | 0.728 |

| Sequence | shrunken log2 fold change |
| --- | --- |
| RRIRMRPPRLPRPRPRPPIEPRP | 0.309 |
| RRIRMRPPRLPRPRPRPPINPRP | -0.195 |
| RRIRMRPPRLPRPRPRPPKGPRP | 0.873 |
| RRIRMRPPRLPRPRPRPPLTPRP | 0.843 |
| RRIRMRPPRLPRPRPRPPMAPRP | 0.841 |
| RRIRMRPPRLPRPRPRPPNCPRP | 0.0335 |
| RRIRMRPPRLPRPRPRPPNYPRP | 0.0891 |
| RRIRMRPPRLPRPRPRPPPFPRP | 1.15 |
| RRIRMRPPRLPRPRPRPPRAPRP | 1.78 |
| RRIRMRPPRLPRPRPRPPSRPRP | 1.01 |
| RRIRMRPPRLPRPRPRPPSYPRP | 0.358 |
| RRIRMRPPRLPRPRPRPPTDPRP | 1.21 |
| RRIRMRPPRLPRPRPRPPVHPRP | 0.595 |
| RRIRMRPPRLPRPRPRPPWNPRP | 0.369 |
| RRIRMRPPRLPRPRPRPPWPPRP | 1.1 |
| RRIRMRPPRLPRPRPRPQAPPRP | 0.718 |
| RRIRMRPPRLPRPRPRPQFEPRP | 0.046 |
| RRIRMRPPRLPRPRPRPQFQPRP | -0.165 |
| RRIRMRPPRLPRPRPRPQGIPRP | -0.154 |
| RRIRMRPPRLPRPRPRPQGKPRP | -0.0118 |
| RRIRMRPPRLPRPRPRPQILPRP | -0.0502 |
| RRIRMRPPRLPRPRPRPQKIPRP | 0.255 |
| RRIRMRPPRLPRPRPRPQKPPRP | -0.165 |
| RRIRMRPPRLPRPRPRPQKVPRP | 0.238 |
| RRIRMRPPRLPRPRPRPQLGPRP | -0.0543 |

| Sequence | shrunken log2 fold change |
| --- | --- |
| RRIRMRPPRLPRPRPRPQLWPRP | 0.998 |
| RRIRMRPPRLPRPRPRPQMFPRP | -0.0181 |
| RRIRMRPPRLPRPRPRPQNKPRP | -0.176 |
| RRIRMRPPRLPRPRPRPQPIPRP | -0.0134 |
| RRIRMRPPRLPRPRPRPQPKPRP | 1.77 |
| RRIRMRPPRLPRPRPRPQRQPRP | 0.0595 |
| RRIRMRPPRLPRPRPRPQSGPRP | -0.0103 |
| RRIRMRPPRLPRPRPRPQSIPRP | -0.0553 |
| RRIRMRPPRLPRPRPRPQSLPRP | -0.0682 |
| RRIRMRPPRLPRPRPRPQSPPRP | 0.213 |
| RRIRMRPPRLPRPRPRPQSTPRP | 0.21 |
| RRIRMRPPRLPRPRPRPQTNPRP | 0.462 |
| RRIRMRPPRLPRPRPRPQVKPRP | -0.0452 |
| RRIRMRPPRLPRPRPRPQVPPRP | -0.0842 |
| RRIRMRPPRLPRPRPRPQVWPRP | 0.399 |
| RRIRMRPPRLPRPRPRPQWAPRP | -0.0175 |
| RRIRMRPPRLPRPRPRPQWQPRP | 0.825 |
| RRIRMRPPRLPRPRPRPQYQPRP | -0.00342 |
| RRIRMRPPRLPRPRPRPRCMPRP | 0.511 |
| RRIRMRPPRLPRPRPRPRDTPRP | 0.964 |
| RRIRMRPPRLPRPRPRPRESPRP | 0.09 |
| RRIRMRPPRLPRPRPRPREYPRP | 0.314 |
| RRIRMRPPRLPRPRPRPRFPPRP | 0.573 |
| RRIRMRPPRLPRPRPRPRFRPRP | 0.784 |
| RRIRMRPPRLPRPRPRPRFVPRP | 0.236 |

| Sequence | shrunken log2 fold change |
| --- | --- |
| RRIRMRPPRLPRPRPRPRGAPRP | 1.44 |
| RRIRMRPPRLPRPRPRPRGIPRP | 0.0677 |
| RRIRMRPPRLPRPRPRPRGQPRP | 1.25 |
| RRIRMRPPRLPRPRPRPRGSPRP | 0.631 |
| RRIRMRPPRLPRPRPRPRINPRP | 0.19 |
| RRIRMRPPRLPRPRPRPRIRPRP | 0.79 |
| RRIRMRPPRLPRPRPRPRKTPRP | 0.514 |
| RRIRMRPPRLPRPRPRPRLAPRP | 2.7 |
| RRIRMRPPRLPRPRPRPRLKPRP | 1.82 |
| RRIRMRPPRLPRPRPRPRMFPRP | 0.154 |
| RRIRMRPPRLPRPRPRPRNCPRP | 0.0629 |
| RRIRMRPPRLPRPRPRPRNDPRP | 0.193 |
| RRIRMRPPRLPRPRPRPRNNPRP | 0.063 |
| RRIRMRPPRLPRPRPRPRNVPRP | 0.29 |
| RRIRMRPPRLPRPRPRPRPDPRP | 0.937 |
| RRIRMRPPRLPRPRPRPRQKPRP | 0.183 |
| RRIRMRPPRLPRPRPRPRQRPRP | 1.79 |
| RRIRMRPPRLPRPRPRPRQWPRP | 0.0789 |
| RRIRMRPPRLPRPRPRPRRKPRP | 0.416 |
| RRIRMRPPRLPRPRPRPRRSPRP | 0.438 |
| RRIRMRPPRLPRPRPRPRRYPRP | 1.15 |
| RRIRMRPPRLPRPRPRPRTAPRP | 1.29 |
| RRIRMRPPRLPRPRPRPRTDPRP | -0.0668 |
| RRIRMRPPRLPRPRPRPRTWPRP | 1.11 |
| RRIRMRPPRLPRPRPRPRVCPRP | 0.545 |

| Sequence | shrunken log2 fold change |
| --- | --- |
| RRIRMRPPRLPRPRPRPRVMPRP | 0.832 |
| RRIRMRPPRLPRPRPRPRWCPRP | 0.273 |
| RRIRMRPPRLPRPRPRPRWPPRP | 1.06 |
| RRIRMRPPRLPRPRPRPRYTPRP | 0.338 |
| RRIRMRPPRLPRPRPRPSAPPRP | 0.51 |
| RRIRMRPPRLPRPRPRPSCAPRP | 0.563 |
| RRIRMRPPRLPRPRPRPSDGPRP | -0.205 |
| RRIRMRPPRLPRPRPRPSEAPRP | 1.95 |
| RRIRMRPPRLPRPRPRPSEIPRP | -0.00151 |
| RRIRMRPPRLPRPRPRPSETPRP | 0.814 |
| RRIRMRPPRLPRPRPRPSFCPRP | -0.0778 |
| RRIRMRPPRLPRPRPRPSFEPRP | 0.318 |
| RRIRMRPPRLPRPRPRPSFPPRP | -0.222 |
| RRIRMRPPRLPRPRPRPSGMPRP | 0.03 |
| RRIRMRPPRLPRPRPRPSHGPRP | 0.385 |
| RRIRMRPPRLPRPRPRPSHHPRP | -0.171 |
| RRIRMRPPRLPRPRPRPSICPRP | -0.176 |
| RRIRMRPPRLPRPRPRPSKSPRP | 0.166 |
| RRIRMRPPRLPRPRPRPSKTPRP | 0.00519 |
| RRIRMRPPRLPRPRPRPSLEPRP | 0.895 |
| RRIRMRPPRLPRPRPRPSMAPRP | 0.925 |
| RRIRMRPPRLPRPRPRPSMGPRP | 0.0383 |
| RRIRMRPPRLPRPRPRPSNQPRP | -0.0365 |
| RRIRMRPPRLPRPRPRPSPGPRP | 0.564 |
| RRIRMRPPRLPRPRPRPSPVPRP | 0.384 |

| Sequence | shrunken log2 fold change |
| --- | --- |
| RRIRMRPPRLPRPRPRPSPWPRP | 0.61 |
| RRIRMRPPRLPRPRPRPSQYPRP | -0.191 |
| RRIRMRPPRLPRPRPRPSRQPRP | 0.956 |
| RRIRMRPPRLPRPRPRPSSIPRP | -0.0701 |
| RRIRMRPPRLPRPRPRPSTQPRP | 0.148 |
| RRIRMRPPRLPRPRPRPSTSPRP | -0.0821 |
| RRIRMRPPRLPRPRPRPSYKPRP | -0.296 |
| RRIRMRPPRLPRPRPRPTADPRP | 2.84 |
| RRIRMRPPRLPRPRPRPTCEPRP | 0.745 |
| RRIRMRPPRLPRPRPRPTCGPRP | 0.942 |
| RRIRMRPPRLPRPRPRPTCMPRP | 0.262 |
| RRIRMRPPRLPRPRPRPTDPPRP | 0.00799 |
| RRIRMRPPRLPRPRPRPTDWPRP | 1.27 |
| RRIRMRPPRLPRPRPRPTEPPRP | 0.383 |
| RRIRMRPPRLPRPRPRPTEYPRP | -0.289 |
| RRIRMRPPRLPRPRPRPTFMPRP | 0.154 |
| RRIRMRPPRLPRPRPRPTGGPRP | 0.454 |
| RRIRMRPPRLPRPRPRPTGIPRP | -0.149 |
| RRIRMRPPRLPRPRPRPTHEPRP | 0.439 |
| RRIRMRPPRLPRPRPRPTHMPRP | 0.362 |
| RRIRMRPPRLPRPRPRPTIKPRP | 0.0703 |
| RRIRMRPPRLPRPRPRPTLDPRP | 1.35 |
| RRIRMRPPRLPRPRPRPTLTPRP | 1.4 |
| RRIRMRPPRLPRPRPRPTMMPRP | 0.168 |
| RRIRMRPPRLPRPRPRPTNEPRP | 0.282 |
